{"source": "paper PMC11617674", "about": "“The activity of the ribonucleotide monophosphatase UmpH is controlled by interaction with the GlnK signaling protein in Escherichia coli” (The Journal of Biological Chemistry, 2024)", "substrate": "O=c1ccn([C@@H]2O[C@H](COP(=O)(O)O)[C@@H](O)[C@H]2O)c(=O)[nH]1", "assay": "continuous phosphate release, EnzChek (MESG/purine nucleoside phosphorylase), A360, Michaelis-Menten fit", "format": "biochemical, Escherichia coli", "conditions": "no GlnK, no effectors, 20 mM Hepes pH 7.4, 50 mM KCl, 5 mM MgCl2, 2 mM NAG, 2 mM DTT, 25 °C"}
{"protein": "UmpH (Escherichia coli K-12) (protein, untagged; synthetic umpH gene in pET29a, expressed in E. coli BL21 (λDE3); band approximately 30 kDa) MTIKNVICDIDGVLMHDNVAVPGAAEFLHGIMDKGLPLVLLTNYPSQTGQDLANRFATAGVDVPDSVFYTSAMATADFLRRQEGKKAYVVGEGALIHELYKAGFTITDVNPDFVIVGETRSYNWDMMHKAAYFVANGARFIATNPDTHGRGFYPACGALCAGIEKISGRKPFYVGKPSPWIIRAALNKMQAHSEETVIVGDNLRTDILAGFQAGLETILVLSGVSSLDDIDSMPFRPSWIYPSVAEIDVI", "values": [{"measurement": "Km", "result": "278 ± 27", "unit": "µM"}]}
